Experimental findings from patent US20220267469A1 (LIPUM, published 2022) are described below.

Assay [1] concerns the target T1, Biotinylated human BSSL (human, UniProt P19835 21-753, Biotinylated on glycosacarides, 30-40 biotin/BSSL).
T1 construct: hBSSL biotinylated in house; also called b-hBSSL; human BSSL-biotin
T1 sequence: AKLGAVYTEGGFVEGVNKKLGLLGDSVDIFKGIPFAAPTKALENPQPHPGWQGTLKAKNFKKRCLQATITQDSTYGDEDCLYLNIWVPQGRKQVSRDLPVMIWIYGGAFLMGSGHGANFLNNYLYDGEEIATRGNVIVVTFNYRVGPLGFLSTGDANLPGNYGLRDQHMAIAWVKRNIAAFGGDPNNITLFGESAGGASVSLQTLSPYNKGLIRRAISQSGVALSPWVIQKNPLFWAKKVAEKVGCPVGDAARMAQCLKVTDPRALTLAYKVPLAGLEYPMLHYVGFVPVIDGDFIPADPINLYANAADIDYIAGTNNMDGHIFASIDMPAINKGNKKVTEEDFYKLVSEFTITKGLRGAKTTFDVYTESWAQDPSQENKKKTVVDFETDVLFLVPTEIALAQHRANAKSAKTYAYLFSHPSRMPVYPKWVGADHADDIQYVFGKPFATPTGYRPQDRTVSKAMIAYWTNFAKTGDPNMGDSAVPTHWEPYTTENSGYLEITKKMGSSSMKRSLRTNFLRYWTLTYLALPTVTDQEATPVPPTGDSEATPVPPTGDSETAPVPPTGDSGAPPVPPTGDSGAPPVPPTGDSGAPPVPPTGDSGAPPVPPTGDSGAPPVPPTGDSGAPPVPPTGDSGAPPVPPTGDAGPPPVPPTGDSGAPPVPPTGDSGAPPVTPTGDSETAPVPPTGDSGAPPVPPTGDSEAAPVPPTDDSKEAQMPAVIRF
Description: flow cytometry displacement assay; 2.0 ug antibody, 1 ug b-hBSSL. In a few lines:
(§1)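 Antibody (0.5–3.0 μg per reaction) preincubated with 1 μg biotinylated human BSSL in PBS pH 7.4, 30 min at 4 °C, then with human buffy coat 30 min at 4 °C. After erythrocyte lysis/fixation, bound BSSL on CD14+ monocytes detected by labelled streptavidin via flow cytometry.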

Assay [2] has as its target T1, Biotinylated human BSSL. In words: flow cytometry displacement assay; 1.0 ug antibody, 1 ug b-hBSSL. In a few lines: as §1
In general terms: In flow cytometry, cells or beads pass a laser one at a time.

In assay [3] the target is T2, Mouse BSSL, recombinant (mouse, UniProt Q64285 21-599).
T2 construct: Bought (R&D Systems, Cat. no 5658-CE); also called mBSSL; murine BSSL
T2 sequence: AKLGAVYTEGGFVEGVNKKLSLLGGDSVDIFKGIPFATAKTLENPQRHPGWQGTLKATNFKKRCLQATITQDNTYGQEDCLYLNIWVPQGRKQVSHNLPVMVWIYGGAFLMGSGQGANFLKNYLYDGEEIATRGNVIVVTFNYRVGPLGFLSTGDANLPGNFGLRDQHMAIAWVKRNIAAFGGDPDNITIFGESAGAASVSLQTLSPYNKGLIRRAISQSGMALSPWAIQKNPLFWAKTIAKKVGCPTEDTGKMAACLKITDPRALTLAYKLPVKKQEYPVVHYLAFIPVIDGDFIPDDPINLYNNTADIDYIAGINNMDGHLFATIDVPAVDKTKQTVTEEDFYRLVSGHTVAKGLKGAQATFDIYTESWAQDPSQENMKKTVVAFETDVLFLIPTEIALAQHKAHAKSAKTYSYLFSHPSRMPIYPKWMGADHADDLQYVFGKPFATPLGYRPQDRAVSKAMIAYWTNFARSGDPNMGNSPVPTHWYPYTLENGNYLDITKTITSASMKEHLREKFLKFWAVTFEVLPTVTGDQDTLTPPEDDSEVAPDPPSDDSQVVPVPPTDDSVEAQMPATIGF
In words: SPR steady state analysis, antibody immobilised, second set of experiments. The protocol:
(§2) SPR measurements were performed with a BIACORE® T200 instrument (GE Healthcare). In order to minimize avidity effects, the antibody was immobilized on the sensor surface and BSSL was injected as the analyte. Immobilization of AS20 mlgG1 was performed by amine coupling to a BIACORE® CM5 (carboxylated dextran surface) sensor chip. The chips were activated by injection of a 1:1 mixture of 0.2 M N-ethyl-N′-[(dimethylamino)peopyl]carbodiimide (EDC) and 0.05 M N-hydroxysucciminimde (NHS) with a contact time of 7 minutes. The antibody was injected for 0.2-2.8 minutes diluted to 14-50 μg/ml in 10 mM acetate-HCl pH 5.0 (set one) or pH 6.0 (set two) to reach final immobilization levels of between 560 and 830 RU. Remaining activated carboxyl groups on the sensor surface were deactivated with an injection of 1 M ethanolamine for 7 minutes.
(§3) In the second set of experiments the running buffer was 25 mM TrisHCl, pH 7.5, 150 mM NaCl. 146 mM H₃PO₄ was used as the standard regeneration solution. The kinetic studies and the non-linear regression analysis were made according to the Single Cycle Kinetics (SCK) method of the BIACORE® T200 instrument and evaluation software. The interaction between mBSSL and AS20 mlgG1 was analyzed with steady state affinity model.

Assay [4] concerns the target T2, Mouse BSSL, recombinant. In words: SPR steady state analysis. The method, then: as §2, §3
For assay [5], the target named is T1, Biotinylated human BSSL. Description: flow cytometry displacement assay; 0.5 ug antibody, 1 ug b-hBSSL. In short, it runs like this:
as §1

Assay [6] has as its target T3, Human BSSL (bile salt-stimulated lipase), native (human, UniProt P19835 21-753).
T3 construct: Native full-length protein purified from human milk (Astra Hässle AB); also called hBSSL; non-biotinylated human BSSL
T3 sequence: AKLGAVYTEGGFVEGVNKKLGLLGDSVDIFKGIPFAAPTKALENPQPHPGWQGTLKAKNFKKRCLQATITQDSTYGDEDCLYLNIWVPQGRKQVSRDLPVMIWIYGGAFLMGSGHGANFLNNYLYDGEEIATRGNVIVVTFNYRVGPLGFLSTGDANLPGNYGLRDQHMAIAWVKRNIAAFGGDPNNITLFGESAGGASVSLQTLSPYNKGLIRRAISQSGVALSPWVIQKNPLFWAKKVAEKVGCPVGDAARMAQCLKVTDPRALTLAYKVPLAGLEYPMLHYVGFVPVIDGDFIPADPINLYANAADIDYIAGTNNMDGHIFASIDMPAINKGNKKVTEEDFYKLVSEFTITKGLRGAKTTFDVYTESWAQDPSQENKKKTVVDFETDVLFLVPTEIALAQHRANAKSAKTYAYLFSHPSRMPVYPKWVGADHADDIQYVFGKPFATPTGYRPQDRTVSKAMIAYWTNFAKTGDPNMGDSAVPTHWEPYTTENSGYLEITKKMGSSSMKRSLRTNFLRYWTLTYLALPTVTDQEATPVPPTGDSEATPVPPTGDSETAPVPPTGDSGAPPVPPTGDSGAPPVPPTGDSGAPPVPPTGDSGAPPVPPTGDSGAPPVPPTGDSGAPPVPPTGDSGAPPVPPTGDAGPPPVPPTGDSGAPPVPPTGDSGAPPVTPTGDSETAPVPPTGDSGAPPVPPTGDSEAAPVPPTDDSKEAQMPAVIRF
Description: SPR single cycle kinetics, antibody immobilised, second set of experiments. The protocol: as §2, §3

For assay [7], the target named is T3, Human BSSL (bile salt-stimulated …). In words: SPR single cycle kinetics, antibody immobilised, first set of experiments. The protocol:
as §2, §3

For assay [8], the target named is T1, Biotinylated human BSSL. Description: flow cytometry displacement assay; 3.0 ug antibody, 1 ug b-hBSSL. In a few lines: as §1
For assay [9], the target named is T1, Biotinylated human BSSL. Description: flow cytometry displacement assay; 1.5 ug antibody, 1 ug b-hBSSL. In short, it runs like this:
as §1

B1: AS20 mouse IgG1 (antibody, V domains shown)
VH: QVQLQQPGAELVKPGASVKMSCKASGYTFTSYNMHWVKQTPGQGLEWIGVIYPGNGDTSYNQKFKGKATLTADKSSSTAYMQLSSLTSEDSAVYYCARDYYGSSPLGYWGQGTTLTVSS
VL: QIVLTQSPAVMSASPGEKVTMTCSASSSISYMHWYQQKPGTSPKRWIYDTSKLASGVPARFSGSGSGTSYSLTISSMEAEDAATYYCHQRSSYPTFGGGTKLEIK
notes: also called AS20 mlgG1; AS20 mIgG1
Broadly, the Kd is a measure of binding affinity in units of concentration. What is called koff is the first-order rate constant of dissociation. As usually defined, the kon is the rate constant with which the complex forms. As to B1, the “percentage reduction of b-hBSSL binding to CD14+ monocytes” value with Biotinylated human BSSL [1] is 74%; with Biotinylated human BSSL [2], 66%; with Biotinylated human BSSL [5], 31%; in the assay with Biotinylated human BSSL [8], 80%; in the assay with Biotinylated human BSSL [9], 72%. Besides, the Kd was 155 nM with Mouse BSSL, recombinant [3]; 1.1 nM in [6]; 2.8 nM in [7]. In addition, the “fold weaker affinity than for human BSSL” value with Mouse BSSL, recombinant [4] is roughly 100 fold. For the same molecule, the koff in assay [6] came to 0.00025 s⁻¹; in assay [7], 0.00027 s⁻¹. The kon came out at 230000 M⁻¹ s⁻¹ in [6] and 97000 M⁻¹ s⁻¹ in assay [7].
